The record followed here is the RNAGym collection of RNA variant scans (doi:10.1073/pnas.2313332121).

Fewer inactive variants are shown than the library holds.

First the molecules themselves.
B1: TPR 5TU (parent)
chain: GGAUCUUCUCGAUCUAACAAAAAAGACAAAUCUGCCACAAAGCUUGAGAGCAUCUUCGGAUGCAGAGGCGGCAGCCUUCGGUGGCGCGAUAGCGCCAACGUUCUCAACUAUGACACGCAAAACGCGUGCUCCGUUGAAUGGAGUUUAUCAUG

This series covers variants of B1. The series is described as follows: polymerase ribozyme fitness, log enrichment relative to wild type (log ratio); higher = more active; in vitro selection for triplet polymerase activity. In a few lines: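 Fitness measures genotype enrichment against wild-type enrichment on a logarithmic scale, with inverse-variance-weighted averaging of replicates. The logarithm is base 2, and genotypes were kept only with ≥10 input reads and ≥1 read per output in Illumina sequencing. The sequenced libraries came from one triplicate in vitro selection round, including frozen incubation at −7 °C, of PCR-built, transcribed mutant libraries of each subunit of a heterodimeric triplet polymerase ribozyme.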
GGAUCUUCUCGAUCUAACAAAAAAGACAAAUCUGCCACAAAGCUUGAGAGCAUCUUCGGAUGCAGAGGCGGCAGCCUUCGGAAGCGCGAUAGCGCCAGCGUUCUCAACUAUGACACGCAAAACGCGCGCUCCGUUGAAUGGAGUUUAUCAUG: the “polymerase ribozyme fitness (log ratio)” value was -3.36.

For the variant GGAUCUUCUCGAUCUAACAAAAAAGACAAAUCUGCCACAAAGCUUGCGAGCAUCUACGGAUGCAGAGGCGGCAGCCUUCGGUGGCGCGAUAGCGCCAACGUUCUCAACUAUGACACGCAAAACGCGUGCUCCGUUGAAUGGAGUUUAUCAUG, the “polymerase ribozyme fitness (log ratio)” value was -0.282.

Take GGAUCUUCUCGAUCUAACAAAAAAGACAAAUCUGCCACAAAGCUUAAGAGCAUCUUCGGAUGCAGAGGCUGCAGCCUUCGGUGGGGCGAUAGCGCCAACGUUCUCAACUAUGACACGCAAAACGCGUGCACCGUUGAAUGGAGUUUAUCAUG: the “polymerase ribozyme fitness (log ratio)” value was at most -4.2.

Take GGAUCUUCUCGAUCUAACAAAAAAGACAAAUCUGCCACAAAGCUUGAGAGCAUCUUCGGAUGCAGAGGCGGCAGCCUUCGGUGGAGCGAUAGCGCGAACGUUCUCAACUAUGACACGCAAAACGCGUGCUCCGUUGAAUGGAGUUUAUCAUG: the “polymerase ribozyme fitness (log ratio)” value is -2.42.

As for GGAUCUUCUCGAUCUAACAAAAAAGACAAAUCUGCCACAAUGCUUGAGAGCGUCUUCGGAUGCAGAGGCGGCAGCCUUCGGUGGCGCGAUAGCGCAAACGUUCUCAACUAUGACACGCAAAACGCGUGCUCCGUUGAAUGGAGUUUAUCAUG, the “polymerase ribozyme fitness (log ratio)” value is -3.24.

Take GGAUCUUCUCGAUCUAACAAAAAAGACAAAUCUGCCAUAAAGCUUGAGAGCAUCUUCGGAUGCAGAGGCGGCAGCCUUCGGUGGCGCGAUAGCGCCGACGUUCUCAACUAUGACACGCAAAACGCGUGCUCCGUUGAAUGGAGUUUAUCAUG: the “polymerase ribozyme fitness (log ratio)” value is -0.0867.

For the variant GGAUCUUCUCGAUCUAACAAAAAAGACAAAUCUGCCACAAAGCUUGAGAGCAUCUUCGGAUGCAGAGGCGGCAGCCUUCGGUGGCGCGAUAGCGCCAACGUUCUCAACUAUGACACGCAAAACGCGUGCUCCGUUGAAUGGAGGUUAGCAUG, the “polymerase ribozyme fitness (log ratio)” value was -3.38.

With GGAUCUUCUCGAUCUAACAAAAAAGAAAAAUCUGCCACAAAGCUUGAGAGCAUCUUCGGAUGCAGAGGCGGCAGCCUUCGGUGGCGAGAUAGAGCCAACGUUCUCAACUAUGACACGCAAAACGCGUGCUCCGUUGAAUGGACGUUAUCAUG, the “polymerase ribozyme fitness (log ratio)” value is at most -4.2.

On to GGAUCUUAUCGAUCUAACAAAAAAGACAAAUCUGCCACAAAGCUUGAGAGCAUCUUCGGAUACAGAGGCGGCAGCCUUCGGUGGCGCGAUAACGCCAACGUUCUCAACUAUGACACGCAAAACGCGUGCUCCGUUGAAUGGAGUUUAUCAUG, for which the “polymerase ribozyme fitness (log ratio)” value is at most -4.2.

Turning to GGAUCUUCUCGAUCUAACAAAAAAGACAAAUCUGCCACAAAGCUUGAGAGCAUCUUCGUAUGCAGAGGCGGCAGCCUUCGGUGGCGCGAUAGCGAGAACGUUCUCAACUAUGACACGCUAAAUGCGUGCUCCGUUGAAUGGAGUUUAUUAUG, the “polymerase ribozyme fitness (log ratio)” value was -3.57.

As to GGAUCUUCUCGAUCUAACAAAAAUGACAAACCUGCCAUAAAGCUUGAGAGCAUCUUCGGAUGCAGAGGCGGCAGCCUUCGGAGACGCGAUAGCGCCAACGUUCUCAACUAUGACACGCAAAACGCGUGCUCCGUUGAAUGGAGUUUAUCAUG, the “polymerase ribozyme fitness (log ratio)” value came to 0.365.

In the case of GGAUCUUCUCGAUCUAACAAAAUAGACAAAUCUGCCACAAAGCUUGAGAGCAUCUUCGGAUGCAGAGGCGGCAGCCUUCGGUGGCGCGAUAGCGCCAACGUUCUCAACUAUGACACGCAAAACGCGUGCUCCGUUGAAAGGAGUUUAUCAUG, the “polymerase ribozyme fitness (log ratio)” value is at most -4.2.

GGAUCUUCUCGAUCUAACAAGAAAGACAAAUCUGCCACAAAACUUGAGAGCAUCUUCGGAUGCAGAGGCGGCAGCCUUCGGUGGCGCGAUAGUGCCAACGUUCUCAACUCUGACACGCAAAACGCGUGCUCCGUUGAAUGGAGUUUAUCAUG: the “polymerase ribozyme fitness (log ratio)” value is at most -4.2.

As for GGAUCUUCUCGAUCUAACAAAACAGACAAAUCUGCCACAAACCUUGAGAGCAUCUUCGGAUGCAGAGGCGGCAGCCAUCCGUGGCGCGAUAGCGCCAACGGUCUCAACUAUGACACGCAAAACGCGUGCUCCGUUGAAUGGAGUUUAUCAUG, the “polymerase ribozyme fitness (log ratio)” value was at most -4.2.

Turning to GGAUCUUCUCGAUCUAACAAAAAAGACAAAACUGCCAGAAAGCUUGAGAGCAUCUUCGGAUGCAGAGGCGGCAGCCUUCGGUGGCACGAUAGCGCCAACGUUCUCAACUAUGACACGCAAAACGCGUGCUCCGUUAAAUGGAGUUUAUCAUG, the “polymerase ribozyme fitness (log ratio)” value was -1.16.

Take GGAUCUUCUCGAGCUAACAAAAAAGACAAAUCUGCCACAAAGCUUGAGAGCAUCUUCGGAUGCAGAGGCGGCAGCCUUCGGUGACGCGAUAGCGCCAACGUUCUCAACUAUGACACGCAAAACGCGUGCUCCGUUGAAUGGAGUUUAUCAUG: the “polymerase ribozyme fitness (log ratio)” value is -0.636.

For GGAUCUUCUCGAUCUAACAAAAAAGACAACUCUGCCACAAAGCUUGAGUGCAUCUUGGGAUGCAGAGGCGGCAGCCUUAGGUGGCGCGAUAGCGCUAACGUUCUCAUCUAUGACACGCAAAACGCGUGCUCCGUUGAAUGGAGUUUAUCAUG, the “polymerase ribozyme fitness (log ratio)” value is at most -4.2.

Take GGAUCUUCUCGAUCUAACAAAAAAGACAAAUCUGUCACAAGGCUUGAGAGCAUCUUCGGAUGCAGAGGCGGCAGCCUUCGGUGGCGCGAUAGCACCAUCGUUCUCAACUAUGACACGCAAAACGCGUGCUCCGUUGAAUGGAGUUUAUCAUU: the “polymerase ribozyme fitness (log ratio)” value is -3.4.

Turning to GGAUCUUCUCGAUCUAACAAAAAAGACAAAUCUGCCACACAGCUUGAGAGCAUAUUCGCAUGCAGAGGCGGCAGCCUUCGGUGGCGUGAUAGCGCCAACGUUCUCAACUAUGACACGCAAAACGCGUGCUCCGUUGAAUGGAGUUUAUCAUG, the “polymerase ribozyme fitness (log ratio)” value is -2.96.

Consider GGAUCUUCUCGAUCUAACAAAAAAGACAAAUCUGCCACAUAGCUUAAGAGCAUCUUCGGAUGCAGAGGCGGCAGCCUUCGGUGGAGCGAUAGCGCCAACGUUCUCAACUAUGACGCGCAGAACGCGUGCUCCGUUGAAUGGAGUUUAUCAUG, for which the “polymerase ribozyme fitness (log ratio)” value is -4.09.

Take GGAUCUUCUCGAUCUAACAAAAAAGACAAAUCUGCCACAAAGCUUGAGAGCAUCUUUCGAUGCAGAGGCGGCAGCCUUUGGUGGCGCGAUAGCGCCAACGUUCUCAACUAUGACACGCAAAACGCGUGCUCCGUUGAAUGGAGUUUAUCAUG: the “polymerase ribozyme fitness (log ratio)” value is -1.86.

With GGAUCUUCUCGAUCUAACAAAAAAGACAAAUCUGCCACAAAGCUUGAGAGCAUCUUAGGCUGCAGAGGCGGCAGCCUUCGGUGGCGCGAUAGCGCUAACGUUCUCAACUAUGACACGCAAAACGCGUGCUCAGUUGAAUGGAGUUUAUCAUG, the “polymerase ribozyme fitness (log ratio)” value was -3.83.

For GGAUCUUCUCGAUCUAACAAAAAAGACAAAUCUGCCACAAAGCUUGAGAGCAUCUUCGGAUGCAGAGGCGGCAGCCUUCGGUGGCGCGAUAGCACCAACGUUCUCAACUAUGACACGCAAUACGCGUGCUCGGUUGAAUGGAGUUAAUCGUG, the “polymerase ribozyme fitness (log ratio)” value was at most -4.2.

As for GGAUCUUCUCGAUCUAACAAAAAAGACAAAUCUACCACAAAGCUUGAGAGCAUCGUCGGAUGCAGAGGCGGCAGCCUUCGGUGGCGCUAUAGCGCCAACGUUCUAAACUAUGACACGCAAAACGCGUGCUCCGUUGAAUGGAGUUUAUCAUG, the “polymerase ribozyme fitness (log ratio)” value is at most -4.2.

Consider GGAUCUUCUCGAUCUAACAAAGAAGACAAAUCUGCCACAAAGCUUGAGAGCAUCAUCGGAAGCAGAGGCGGCAGCCUUCGGUGGCGCGAUAGCUCCAACGUUCUCAACUAUGACACGCAAAACGCGUGCUCCGUUGAAUGGAGUUUAUCAUG, for which the “polymerase ribozyme fitness (log ratio)” value is -3.37.

On to GGAUCUUCUCGAUCUAACAAAAAAGACAAAUCUGCCACAAAGCCUGAGAGCAUCUACGGAUGCAGAGGCGGCAGCCUUCGGUGGCGCGAUAGCGCCAACGUUCUCAACUAUGACACGCAAAACGCGUGCUCCGUUGAAUGGAGUUUAUCAUG, for which the “polymerase ribozyme fitness (log ratio)” value is -3.

Take GGAUCUUCUCGAUCUAACAAAAAAGACAAAUCUGCCACAAAGCUUGAGAGCAUCUGCGGAUGCAGAGGCGGCAGCCUUCGGUGGCGCGCUAGCGCAAACGUUCUCAACUAUGACAGGCCAAACGCGUGCUCCGUUGAAUGGAGUUUAUCAUG: the “polymerase ribozyme fitness (log ratio)” value is -3.23.

Take GGAUCUUCUCGAUCUAACAAAAAACACAAAUCUGCCACAAAGCUUGAGAGCAUCUUCGGAUGCAGAGGCGGCAGCCUUCGGUGGCGCGAUAGCGCCAAUGUUCUCAACUAUGACACGCAAAACGCGUGCUCCGUUGAAUGGAGUUUAUCAUG: the “polymerase ribozyme fitness (log ratio)” value is -3.13.

Turning to GGAUCUUCUCGAUCUAACAAUAAAGACAAAUCGGCCACAAAGCUUGAGAGCAUCUUCGGACACAGCGGCGGAAGCCUUCCGUGGUGCGAUAGCGCCAACGUUCUCAGCUAUGACACGCAAAACGCGUGCUCCGUUGAAUGGAGUUUAUCAUG, the “polymerase ribozyme fitness (log ratio)” value is at most -4.2.

GGAUCUUCUCGGUCGAACAAAAAAGGCAAAUCUGCCACAAAGCUUGAGAGCAUCUUCGGAUGCAGAGGCGGCAGCCUUCGGUGGCGCGAUAGAGCCAACGUUCUCAACUAUGACGCGCAAAACGCGUGCUCCGUUGAAUGGAGUUUAUCAUG: the “polymerase ribozyme fitness (log ratio)” value was at most -4.2.

For the variant GGAUCUUCUCGAUGUAACAAAAAAGACAAAUCUGCCACAAAGCUGAAGAGCAUUUUCGGAUGCAGAGGCGGAAGCCUUCGGUGGCGCGAUAGCGCCAACGUUCUCAACUAUGACACGCAAAACGCGUGCUCCGUUGAAGGGUGUUUAUCAUG, the “polymerase ribozyme fitness (log ratio)” value was at most -4.2.

In the case of GGAUCUUCUCGAUCUAACCAAAAAGACAAAUCUGCCACAAAGCUUGAGAGCAUCGUCGGAUGCAGAGGCGGCAGCCUUCGGUGGCGCGAGAGCGCCAACGUUCUCAACUAUGACACGCAAAACGCGUGCUCCGUUGAAUGGAGUUUAUCAUG, the “polymerase ribozyme fitness (log ratio)” value is at most -4.2.

Turning to GGAUCUUCUAGAUCUAACAAAAAAGACAAAUCUGCCACAUAGCUUGAGAGCAUCUUCGGAUGCAGAUGCGGCAGCCUUCGCUGGCGCGAUAGCGCCAACGUUCUCAACUAUGACACGCAAAACGCGUGCUCCGUUGAAUGGAGUUUAUGAUG, the “polymerase ribozyme fitness (log ratio)” value is at most -4.2.

In the case of GGAUCUUCUCGAUCUAACAAAAAAGACAAAUCUGCCACAAAGCUUGAGAGCAUCUUCAGAUGCAGAGGCGGCAGCCUUCGGUGGCGCGUUAGCUCCAACGUUCUCAACUAUGACACGCAAAACGCGUGCUCCGUUGAAUGGAGUUUAUCAUG, the “polymerase ribozyme fitness (log ratio)” value is -3.19.

GGAUCUUCUCGAUCUAACAAAAAAGACAGAUCUGCCACAAAGCUUGAGAGCAUCUUCGGAUGCAGAGGCGGCAGCCUUCGGUGGCGCGAUAGCGCCAGCGUUCUCAACUAUGACACGCAAAACGCGUGCUCCGUUGAAUGGAGUUUAUCAUG: the “polymerase ribozyme fitness (log ratio)” value is at most -4.2.

For GGAUCUUCUCGAUCUAACAAAAAAGACAAAUCUGCCACAAAGCUUGAGAGCAUUUUUGGAUGCAGAGGCGGCAGCCUUCGGUCGCGCGAUAGCGCCAACGUUCUCCACUAUGACACGCAAAACGCGUGCUCCGUCGAAUGGAGUUUAUCAUG, the “polymerase ribozyme fitness (log ratio)” value was at most -4.2.

For the variant GGAUCUUCUCGAUCUAACAAAAAAGACAAAUCUGCCACAAAGCUUGAGAGCAUCUUCGGAUGCAGAGGCGGCAGCCUUCGGUGGCGCGAUUGCGCCAACGUUCUCAACUAGGACACGCAAAACGCGUGCUCCGUUGAAUGGAGUUUAUCAGG, the “polymerase ribozyme fitness (log ratio)” value is at most -4.2.

Regarding GGAUCUUCUCGAUCUAAGAAAAAAGACAAAUCUGCCACAAAGCUUGAGAGCAUCUUUGAAUGCAGAGGCGGCAGCCUUCAGUGGCUCGAUAGCGCCAACGUUCUCAAGUAUGACAUGCAAAACGCGUGCUCCGUUGAAUGGAGUAUAUGAUU, the “polymerase ribozyme fitness (log ratio)” value is at most -4.2.
